# Results published in article doi:10.1101/2023.03.23.533910 (bioRxiv, 2023).
# B1: 3xHA-tagged SNC1 (natural protein, Arabidopsis thaliana, UniProt O23530 1-1437, looked up)
# chain: MMDTSKDDDMEIASSSGSRRYDVFPSFRGEDVRDSFLSHLLKELRGKAITFIDDEIERSRSIGPELLSAIKESRIAIVIFSKNYASSTWCLNELVEIHKCYTNLNQMVIPIFFHVDASEVKKQTGEFGKVFEETCKAKSEDEKQSWKQALAAVAVMAGYDLRKWPSEAAMIEELAEDVLRKTMTPSDDFGDLVGIENHIEAIKSVLCLESKEARIMVGIWGQSGIGKSTIGRALYSKLSIQFHHRAFITYKSTSGSDVSGMKLRWEKELLSEILGQKDIKIEHFGVVEQRLKQQKVLILLDDVDSLEFLKTLVGKAEWFGSGSRIIVITQDRQLLKAHEIDLIYEVEFPSEHLALTMLCRSAFGKDSPPDDFKELAFEVAKLAGNLPLGLSVLGSSLKGRTKEWWMEMMPRLRNGLNGDIMKTLRVSYDRLHQKDQDMFLYIACLFNGFEVSYVKDLLKDNVGFTMLTEKSLIRITPDGYIEMHNLLEKLGREIDRAKSKGNPGKRRFLTNFEDIHEVVTEKTGTETLLGIRLPFEEYFSTRPLLIDKESFKGMRNLQYLEIGYYGDLPQSLVYLPLKLRLLDWDDCPLKSLPSTFKAEYLVNLIMKYSKLEKLWEGTLPLGSLKEMNLRYSNNLKEIPDLSLAINLEELDLVGCKSLVTLPSSIQNATKLIYLDMSDCKKLESFPTDLNLESLEYLNLTGCPNLRNFPAIKMGCSDVDFPEGRNEIVVEDCFWNKNLPAGLDYLDCLTRCMPCEFRPEQLAFLNVRGYKHEKLWEGIQSLGSLEGMDLSESENLTEIPDLSKATKLESLILNNCKSLVTLPSTIGNLHRLVRLEMKECTGLEVLPTDVNLSSLETLDLSGCSSLRSFPLISTNIVWLYLENTAIEEIPSTIGNLHRLVRLEMKKCTGLEVLPTDVNLSSLETLDLSGCSSLRSFPLISESIKWLYLENTAIEEIPDLSKATNLKNLKLNNCKSLVTLPTTIGNLQKLVSFEMKECTGLEVLPIDVNLSSLMILDLSGCSSLRTFPLISTNIVWLYLENTAIEEIPSTIGNLHRLVKLEMKECTGLEVLPTDVNLSSLMILDLSGCSSLRTFPLISTRIECLYLQNTAIEEVPCCIEDFTRLTVLMMYCCQRLKTISPNIFRLTRLELADFTDCRGVIKALSDATVVATMEDHVSCVPLSENIEYIWDKLYRVAYLQEHFSFRNCFKLDRDARELILRSCFKPVALPGEEIPKYFTYRAYGDSLTVIVPQSSLSQNFLRFKACVVVEPLSKGKGFYPFLKVNVGFNGKQYQKSFSKDAELELCKTDHLFFCSFKFRSEDLPSKLNFNDVEFKFCCSNRIKECGVRLMYVSQEENNQQTTRSEKRMRMTSGTSEEDINLPYGLIVADTGLAALNMELSLGQGEPSSSTSLEGEALCVDYMITEEQDKGIPILFPVSGN
# Molecular target: the molecule itself
# Experiment: native gel or EMSA
protein,measurement,value
B1,stoichiometry N,~4
